Biological target: human high-affinity IL2 receptor (IL2Rαβγ) (human) (UniProt P01589)
Test: cell-based or functional assay

Sequence of UniProt P01589 (P01589 22-272, chain 1 of 3): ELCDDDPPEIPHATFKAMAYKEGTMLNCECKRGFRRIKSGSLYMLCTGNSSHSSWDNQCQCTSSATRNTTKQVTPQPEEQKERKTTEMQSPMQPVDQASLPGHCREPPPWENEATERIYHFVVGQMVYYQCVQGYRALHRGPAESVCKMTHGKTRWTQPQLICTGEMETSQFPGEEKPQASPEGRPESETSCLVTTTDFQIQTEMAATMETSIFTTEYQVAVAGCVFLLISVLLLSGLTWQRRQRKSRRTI
Sequence of UniProt P01589 (P14784 27-551, chain 2 of 3, further chain): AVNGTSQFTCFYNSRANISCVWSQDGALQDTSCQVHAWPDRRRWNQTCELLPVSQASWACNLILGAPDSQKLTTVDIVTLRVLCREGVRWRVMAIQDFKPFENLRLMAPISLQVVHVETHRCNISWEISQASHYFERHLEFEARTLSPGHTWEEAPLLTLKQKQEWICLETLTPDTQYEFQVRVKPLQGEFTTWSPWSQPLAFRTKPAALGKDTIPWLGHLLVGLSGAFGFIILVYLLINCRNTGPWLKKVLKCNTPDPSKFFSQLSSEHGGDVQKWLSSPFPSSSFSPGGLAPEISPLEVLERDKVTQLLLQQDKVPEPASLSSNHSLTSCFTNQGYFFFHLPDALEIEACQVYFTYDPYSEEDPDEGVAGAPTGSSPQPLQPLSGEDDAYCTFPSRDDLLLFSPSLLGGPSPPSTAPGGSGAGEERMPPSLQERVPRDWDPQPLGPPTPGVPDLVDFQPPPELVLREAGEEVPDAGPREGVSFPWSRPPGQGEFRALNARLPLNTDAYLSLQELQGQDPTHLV
Sequence of UniProt P01589 (P31785 23-369, chain 3 of 3, further chain): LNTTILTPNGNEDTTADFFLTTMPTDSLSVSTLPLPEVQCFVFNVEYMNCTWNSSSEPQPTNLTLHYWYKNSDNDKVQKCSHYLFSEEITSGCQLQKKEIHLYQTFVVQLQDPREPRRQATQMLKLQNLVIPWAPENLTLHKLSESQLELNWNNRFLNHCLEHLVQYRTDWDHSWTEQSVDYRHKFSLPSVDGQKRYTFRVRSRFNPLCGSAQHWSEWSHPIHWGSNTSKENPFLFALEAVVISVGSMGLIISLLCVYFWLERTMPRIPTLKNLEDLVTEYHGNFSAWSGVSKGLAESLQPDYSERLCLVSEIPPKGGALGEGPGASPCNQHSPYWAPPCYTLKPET

- EC50, STAT5 phosphorylation, human CD4+CD25+ Treg cells (%-supernatant): 0.0311
Substance: hAlb-hIL2 (ligand)

From patent publication US20220356223A1
